Test results from patent US20220298231A1.

Experiments:
Settings in all cases: remark: other sources report otherwise
[1] = target: alpha-synuclein fibrils (Homo sapiens (Human)), P37840; test: SPR, mAb captured; alpha-synuclein fibrils
[2] = target: human full-length alpha-synuclein (human), P37840; test: SPR, mAb captured; alpha-synuclein monomers
[3] = target: alpha-synuclein fibrils (Homo sapiens (Human)), P37840; test: SPR, 450 nM aggregates, relative to chimeric
[4] = target: human full-length alpha-synuclein (human), P37840; test: SPR, mAb captured, steady-state fit
[5] = target: human full-length alpha-synuclein (human), P37840; test: SPR, 100 nM monomer, relative to chimeric

B1: ACI-7079-2503C6-Ab1 (antibody, V domains shown)
VH: DVQLQESGPGLVKPSQSLSLTCSVTGYSITSGYYWNWIRLFPGNKLEWLGYINYDGSNNFNPSLKNRISITRDTSKNQFFLKLNSVTSEDTATYFCLRGDWDWGQGTLVTVSA
VL: not shown
koff [1]: < 1e-05 s⁻¹ | kon [1]: 9450 M⁻¹ s⁻¹

B2: ACI-7067-1113D10-Ab1 (antibody, V domains shown)
VH: EVQLVESGGGLVQPKGSLKLSCAASGFTFNTYALHWVRQAPGKGLEWVARIRSKSSNYATYYADSVKDRFTISRDDSQSMLYLQMNNLKTEDTGMYYCVRGGVSPFDYWGQGTTLTVSS
VL: QIVLTQSPAIMSASPGEKVTMTCSASSSVSYMHWYQQKSGTSPKRWIYDTSKLASGVPARFSGSGSGTSYSLTISSMEAEDSATYYCQQWSNNPPTFGGGTKLEIK
koff [2]: 0.0226 s⁻¹

B3: cACI-7067-1101C8-Ab2 (antibody, V domains shown)
VH: EVQLVESGGGLVQPKGSLKLSCAASGFSFNIYAMNWVRQAPGKGLEWVARIRSKSNNYATYYADSVKDRFTISRADSESMLYLQMNNLKTEDTAMYYCVRVGLRFYAMDYWGQGTSVTVSS
VL: DVLMTQTPLSLPVSLGDQASISCRSSQSIVHSNGNTYLEWYLQKPGQSPKLLIYKVSNRFSGVPDRFSGSGSGTDFTLKISRVEAEDLGVYYCFQGSQGPLTFGAGTKLELK
Relative koff [3]: 1 | Kd [4]: 54.5 nM | Relative koff [5]: 1
